How the values were obtained:
[1] = tested on: Th1/Th2 cytokines in nasal polyp patient specimens; experiment: Ex vivo cytokine inhibition in nasal polyp patient specimens (CBA); assay type: cell-based, human; details: antibody drugs 100 nM; three DUPIXENT-resistant samples of 10; Th2 cytokines IL-5, IL-4
Description: The specimens were finely chopped and minced, and then additionally processed twice using the m_lung_02 protocol on a gentleMACS (Miltenyi Biotec) to obtain tissue fragments. After centrifugation at 1500 rpm for 3 minutes to ensure that all tissues formed a pellet, RPMI media+10% FBS was aliquoted in the pellet at a 1:3 ratio. The pellet was thoroughly mixed with the medium and dispensed into a 96-well u-bottom plate, 100 μl per well, in triplicate for each drug. To establish the screening assay, results were obtained first using dexamethasone (a steroid-based positive control drug), followed by treatment with the anti-CD200R1 antibody (P001009v1) and other drugs used for the corresponding disease. All antibody-based drugs were treated at 100 nM, while steroid drugs such as dexamethasone were treated at 20 μM.
After drug treatment, the cells were incubated at 37° C. for 1 hour. To increase overall cytokine levels, 4 μl of a 10-fold diluted cell stimulation cocktail 500× (Invitrogen #00-4970-03) was added on each well and mixed. After reaction for 24 hours at 37° C., the supernatant was collected by centrifugation. Using the human Th1/Th2 cytokine cytometric bead array (CBA) kit (BD, #550749), cytokine levels in the supernatant were measured and the degree of drug responsiveness of each sample was determined.

[2] = tested on: contact dermatitis animal model; experiment: Contact dermatitis animal model (oxazolone); assay type: in vivo, C57BL/6 mice; details: 20 mg/kg intravenously
Description: An in vivo contact dermatitis animal model was established to evaluate the anti-inflammatory efficacy of the anti-CD200R1 antibody. Ten-week-old female C57BL/6 mice were used for the contact dermatitis model. The animals were anesthetized and the abdominal hair thereof was removed. The following day, the shaved abdominal area was sensitized with 100 μL of 3% oxazolone in ethanol. Seven days after sensitization, P001009v1 was administered intravenously at a dose of 20 mg/kg. Four hours later, the thickness of both ears was measured. Then, both ears were sensitized with 2% oxazolone in 10 μL of ethanol. The thickness of both ears was measured again at 24 and 48 hours, and changes in ear edema thickness were recorded. Statistical analysis was performed using one-way ANOVA.

B1: P001009v1: P001009 variant, LC S52 and LC S94 substituted with K and R; VH SEQ ID NO: 79 (antibody, V domains shown)
VH: EVQLLESGGGLVQPGGSLRLSCAASGFTFSSYDMSWVRQAPGKGLEWVSWISHGGGSIYYADSVKGRFTISRDNSKNTLYLQMNSLRAEDTAVYYCARDAPAYSAPLFDYWGQGTLVTVSS
VL: QSVLTQPPSASGTPGQRVTISCSGSSSNIGNNAVNWYQQLPGTAPKLLIYYDKNRPSGVPDRFSGSKSGTSASLAISGLRSEDEADYYCAAWDDRLSGYVFGGGTKLTVL
cytokine suppression in nasal polyp patient samples [1]: superior cytokine suppression | anti-inflammatory efficacy after 48 hours ([2]; 48 hours): maintained | anti-inflammatory response (ear edema thickness) ([2]; compared to control group): significant anti-inflammatory response
